Experimental data from patent publication US20200277375A1 (ULTRAHUMAN FOUR, published 2020).
Where a chain is given by its changes, count along the chain named. Names and notes keep the numbering of the source.

T1: mouse CD47-Fc (mouse, UniProt Q61735 19-140, limits assumed)
T1 construct: Recombinant CD47-Fc; also called mCD47-Fc; mCD37-Fc [sic]; not shown: Fc part
T1 sequence (looked up): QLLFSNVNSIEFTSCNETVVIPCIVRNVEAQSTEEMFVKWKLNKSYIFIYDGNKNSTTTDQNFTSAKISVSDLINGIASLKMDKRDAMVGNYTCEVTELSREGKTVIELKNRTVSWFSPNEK

B1: mVH/mVL (chimeric VxP037) in human IgG1null format (antibody, V domains shown)
VH: EVQLQQFGAELVKPGASMKLSCKASGYTFTNYYVFWVKQRPGQGLEWIGDINPVNGDTNFNEKFKNKATLTVDKSSTTTYLQLSSLTSEDSAVYYCTRGGYTMDYWGQGTLVTVSS
VL: DVVMTQTPLSLSVSLGDQASISCRSSQSLVHSNGNTYLHWYLQKPGQSPKLLIYKVSYRFSGVPDRFSGSGSGTDFTLKISRVEAEDLGVYFCSQNTHVPRTFGQGTKVEIK
notes: Murine v-domains on human IgG1null (IgG1 L234A/L235A/G237A), kappa; also called VP037; Chimeric anti-CD47
B2: A-D5.11 in human IgG1null format (antibody, V domains shown)
VH: EVQLVQSGAEVKKPGESLKISCKGSGYSFTNYYIFWVRQMPGKGLEWMGIINPVDGDTNYNPSFQGQVTISADKSISTAYLQWSSLKASDTAMYYCARGGYTMDRWGQGTLVTVSS
VL: DIVMTQSPLSLPVTPGEPASISCRSSQSLLHSNGYNYLHWYLQKPGQSPQLLIYKVSNRLSGVPDRFSGSGSGTDFTLKISRVEAEDVGVYYCFQNTHTPRTFGQGTKVEIK
notes: Designer clone from A-D5.4; IgG1null
B3: A-D5.12 in human IgG1null format (antibody, V domains shown)
VH: B2 VH with N59R
VL: B2 VL
notes: as for B2
B4: A-D5.13 in human IgG1null format (antibody, V domains shown)
VH: B2 VH with N59R, N61S
VL: B2 VL
notes: as for B2
B5: A-D5.14 in human IgG1null format (antibody, V domains shown)
VH: B2 VH with N59R, N61S
VL: B2 VL with N33S
notes: as for B2
B6: A-D5.15 in human IgG1null format (antibody, V domains shown)
VH: B2 VH with N59R, N61S
VL: B2 VL with N33G
notes: as for B2
B7: A-D5.17 in human IgG1null format (antibody, V domains shown)
VH: B2 VH with N59R, N61S
VL: B2 VL with N33T
notes: as for B2
B8: A-D5.18 in human IgG1null format (antibody, V domains shown)
VH: B2 VH with N59R, N61S
VL: B2 VL with G34A
notes: as for B2
B9: A-D5.1 in human IgG1null format (antibody, V domains shown)
VH: B2 VH
VL: B2 VL with N36T
notes: Designer clone from A-D5; IgG1null
B10: A-D5.3 in human IgG1null format (antibody, V domains shown)
VH: B2 VH with N59R, N61S
VL: B2 VL with N36T
notes: as for B9
B11: A-D5.5 in human IgG1null format (antibody, V domains shown)
VH: B2 VH with S28T
VL: B2 VL with V56G
notes: as for B9
B12: A-D5.6 in human IgG1null format (antibody, V domains shown)
VH: B2 VH with S28T
VL: B2 VL with V56G, H98Q
notes: as for B9
B13: A-D5.9 in human IgG1null format (antibody, V domains shown)
VH: B2 VH with S28T
VL: B2 VL with N36T, N96Q
notes: as for B9
B14: A-D5.10 in human IgG1null format (antibody, V domains shown)
VH: B2 VH with S28T
VL: B2 VL with N33Q, N36T, N96Q
notes: as for B9
B15: mVH/mVL (chimeric VxP037) in human IgG4(S228P) format (antibody, V domains shown)
VH: B1 VH
VL: B1 VL
notes: IgG4 with S228P; also called mVH/mVL IgG4
B16: G-B6 in human IgG4(S228P) format (antibody, V domains shown)
VH: B2 VH with M48I, I50D, D55N, Y60F, N61S, R105K
VL: B2 VL with L30V, N36T, V56G, N58Y, L60A, F94S, H98Q
notes: IgG4(S228P), kappa; also called G-B6 IgG4
B17: A-D5 in human IgG4(S228P) format (antibody, V domains shown)
VH: B2 VH with S28T
VL: B2 VL with N36T
notes: IgG4(S228P), kappa; also called IgG4 A-D5
B18: D-H3 in human IgG4(S228P) format (antibody, V domains shown)
VH: B2 VH with I50D, D55N, N61S, M103P, R105Y
VL: B2 VL with V56G, L60F, F94S, T97L, T99V
notes: IgG4(S228P), kappa; also called D-H3 IgG4
B19: VH-A1/VL-B1 in human IgG4(S228P) format (antibody, V domains shown)
VH: B2 VH with N59R, N61S, Y101F, R105Y
VL: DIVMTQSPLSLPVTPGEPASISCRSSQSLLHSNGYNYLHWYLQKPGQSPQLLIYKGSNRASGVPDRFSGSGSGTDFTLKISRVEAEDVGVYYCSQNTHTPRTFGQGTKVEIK
notes: IgG4(S228P), kappa; also called VH-A1/VL-B1 IgG4
B20: F-E7 in human IgG4(S228P) format (antibody, V domains shown)
VH: B2 VH with D55N, D104G, R105K
VL: B2 VL with L30V, Y35N, N36T, H39D, V56G, N58Y, L60F, F94S, N96A
notes: IgG4(S228P), kappa; also called F-E7 IgG4

What follows are binders tested against T1, mouse CD47-Fc (assay: direct titration ELISA, FIG. 11C).
Method: (§1) FIG. 11A-FIG. 11C. Direct titration ELISA for A-D5.4-derived designer IgGs binding to human, mouse and cyno CD47-Fc proteins. Chimeric anti-CD47 (mVH/mVL), designer A-D5.4-derived clones in human IgG1 null format were titrated (in μg/ml) in a direct binding ELISA against human (FIG. 11A), cyno (FIG. 11B) and mouse (FIG. 11C) CD47-Fc proteins. […] In the figure legends, “IgG1NI” refers to IgG1 null isotype.
(§2) To coat Greiner Bio-One High bind ELISA plates, target proteins were diluted to 1 μg/ml in carbonate buffer and added at 100 μl per well, at 4° C., o/n. Coated plates were washed 3× with PBS pH7.4, blocked with 1% BSA in PBS (380 μl/well) for 1 hr at RT, then washed 3× with PBS-Tween 20 (PBST). CD47 antibodies (100 μl/well; diluted in PBST) were then added and then incubated 1 hr at RT. Plates were then washed 3× with PBST and goat anti-human kappa chain-HRP added (100 μl/well) at RT, for 1 hr. Plates were then washed 3× with PBST and twice with PBS before the addition of 100 μl TMB per well. Reactions were stopped by adding 100 μl 2M H₂SO₄/well and OD was read on a plate reader at 450 nm.

Q: Does B1 bind?
A: binds

Q: Does B2 bind?
A: binds

Q: Does B3 bind?
A: binds

Q: Does B4 bind?
A: binds

Q: Does B5 bind?
A: binds

Q: Does B6 bind?
A: binds

Q: Does B7 bind?
A: binds

Q: Does B8 bind?
A: binds

These binders were tested against T2, human CD47-Fc (human, UniProt Q08722 19-139) (assay: direct titration ELISA, FIG. 9A).
T2 construct: Recombinant CD47-Fc; also called hCD47-Fc; not shown: Fc part
Method: FIG. 9A-FIG. 9C. Direct titration ELISA for designer IgGs binding to human, mouse and cyno CD47-Fc proteins. Chimeric anti-CD47 (mVH/mVL), designer A-D5-derived clones in human IgG1null format were titrated (in μg/ml) in a direct binding ELISA against human (FIG. 9A), cyno (FIG. 9B) and mouse (FIG. 9C) CD47-Fc proteins. […] In the figure legend, “IgG1NI” refers to IgG1 null isotype.
as §2

Q: Does B9 bind?
A: binds

Q: Does B10 bind?
A: binds

Q: Does B11 bind?
A: binds

Q: Does B12 bind?
A: binds

Q: Does B13 bind?
A: binds

Q: Does B14 bind?
A: binds

Each binder was assayed against T2, human CD47-Fc (assay: direct titration ELISA, FIG. 11A).
Method: as §1, §2

Q: Does B2 bind?
A: binds

Q: Does B3 bind?
A: binds

Q: Does B4 bind?
A: binds

Q: Does B5 bind?
A: binds

Q: Does B6 bind?
A: binds

Q: Does B7 bind?
A: binds

Q: Does B8 bind?
A: binds

These binders were tested against T3, human CD47 on cells (human CD47-transfected CHO-K1; HL60) (human, UniProt Q08722 19-323) (assay: flow cytometry, human CD47-transfected CHO-K1, FIG. 6).
T3 construct: whole, on cells; also called human CD47+ cells; human CD47+HL60 cells
Method: (§3) FIG. 6A-FIG. 6C. Flow cytometric binding to human and cyno CD47+CHO-K1 cells. Commercial anti-CD47 antibody MS1991, human IgG1 (“I IgG1”) and IgG4 (“I IgG4”) Isotype controls, lead library-derived IgGs in both IgG1null (“IgG1N”) and IgG4(S228P) formats were examined for specific binding on cyno-transfected CHO-K1 cells (FIG. 6A), human-transfected CHO-K1 cells (FIG. 6B), and wild type (wt, i.e. untransfected) CHO-K1 cells (FIG. 6C). IgGs were tested at concentrations ranging from 24-100,000 ng/ml. Concentration-dependent binding was observed against both human and cyno cell lines for all CD47-specific antibodies but not Isotype controls.
(§4) Antibodies to CD47 were analysed for concentration-dependent binding at the cell surface via flow cytometry. CHO-K1 cells were stably transfected with either human, mouse or cyno CD47 full-length cDNAs. Anti-CD47 IgGs mVH/mVL, VH-A1/VL-B1, A-D5, G-B6, F-E7 and D-H3, and an isotype control IgG1 were then all tested in IgG1null and IgG4(S228P) formats, alongside a commercial mouse anti-human CD47 monoclonal MS1991, over a concentration range of 100,000-24 ng/ml for binding to human, cyno or wild type control (‘wt’, i.e. untransfected) CHO-K1.

Q: B1 was tested. Which “maximum MFI, fold over untransfected CHO-K1” value (shortened to “maximum MFI, fold”) did it give?
A: > 10 fold

Q: With B15 as the binder, how does the “maximum MFI, fold” value read?
A: > 10 fold

Q: With B16 as the binder, how does the “maximum MFI, fold” value read?
A: > 10 fold

Q: With B17 as the binder, how does the “maximum MFI, fold” value read?
A: > 10 fold

Q: Which “maximum MFI, fold” value does the source give for B18 here?
A: > 10 fold

Q: Which “maximum MFI, fold” value does the source give for B19 here?
A: > 10 fold

Q: B20 was tested. Which “maximum MFI, fold” value did it give?
A: > 10 fold

What follows are binders tested against T4, cynomolgus monkey CD47 on transfected CHO-K1 cells (cynomolgus monkey, UniProt A0A5F8AK49 19-323 (rhesus entry)) (assay: flow cytometry, cyno CD47-transfected CHO-K1, FIG. 6).
T4 construct: whole, on cells; also called cyno CD47+ cells
Method: as §3, §4

Q: B1 was tested. Which “maximum MFI, fold” value did it give?
A: > 10 fold

Q: For B15, which “maximum MFI, fold” value is on record?
A: > 10 fold

Q: B16 was tested. Which “maximum MFI, fold” value did it give?
A: > 10 fold

Q: How did the “maximum MFI, fold” value turn out when B17 was run?
A: > 10 fold

Q: For B18, which “maximum MFI, fold” value is on record?
A: > 10 fold

Q: With B19 as the binder, how does the “maximum MFI, fold” value read?
A: > 10 fold

Q: With B20 as the binder, how does the “maximum MFI, fold” value read?
A: > 10 fold
